Experimental findings from patent US20200181597A1, “Composition and Application of Arginine-depleting Agents for Cancer, Obesity, Metabolic Disorders, and Related Complications and Comorbidities” (THE HONG KONG POLYTECHNIC UNIVERSITY, priority 2018, published 2020) are described below.

Data set [1] can be described thus: Arginase specific activity, DAMO colorimetric assay. It counts as biochemical. The note with it: 37° C., pH 7.4, purified preparation. From the text:
The arginase activity of the fusion proteins described herein can be substantially the same, lower, or higher than the activity of the arginase polypeptide from which it is derived. One unit of arginase activity is defined as the amount of fusion protein [e.g., BHA (SEQ ID NO; 75), BAH (SEQ ID NO: 76), N-ABD-rhArg (SEQ ID NO: 49), or N-ABD094-rhArg (SEQ ID NO: 50)] or arginase [e.g., BCA (SEQ ID NO: 70)] that catalyzes the production of 1 μmol of urea per min under standard assay conditions. The specific activity of the enzyme is expressed as activity units per mg of protein. Under standard diacetylmonoxime (DAMO) assay conditions (37° C., pH 7.4), the fusion proteins can have a specific activity that is about 5%, about 10%, about 15%, about 20%, about 25% about 30%, about 35% or about 40% lower or higher than the corresponding arginase polypeptide which it incorporates. In certain embodiments, fusion proteins can have a specific activity that is about 5% to about 40%, about 10% to about 40%, about 10% to about 35%, about 10% to about 30%, about 20% to about 30%, about 20% to about 35%, about 15% to about 30%, about 15% to about 25%, or about 10% to about 20% lower or higher than the corresponding arginase polypeptide which it incorporates.
One unit of enzyme activity is defined as the amount of enzyme (BCA, BHA or BAH) that catalyzes the production of 1 μmol urea per min under standard assay conditions. Specific activity of the enzyme is expressed as activity units per mg of protein.
Briefly, a serial dilution of 0.3 mL BCA solutions together with 0.15 mL water and 720 mM arginine substrate at pH 7.4 was pre-incubated separately at 37° C. for 10 min. The enzymatic reaction was carried out by adding 0.3 mL arginine substrate to the pre-incubated enzyme solutions. […]
The urea formed from the above reaction was quantified using the DAMO direct colorimetric method described by World Health Organization (WHO). […] The absorbance at 540 nm was measured. […]

Data set [2] is described as follows: Blood pressure by tail cuff method in DIO mice. Type of data set: in vivo. The note with it: 600U at 7-day intervals for 5 weeks. The text has this:
Obesity is associated with cardiovascular disease and hypertension. DIO mice treated with 600U N-ABD094-rhArg (SEQ ID NO: 50) at 7-day intervals for 5 weeks were subjected to measurement of blood pressure by tail cuff method using the CODA Non-invasive Blood Pressure System (Kents Scientific Corporation).

Data set [3] can be described thus: Enzyme kinetics after metal ion substitution. Type of data set: biochemical. The protocol:
Wild type arginase typically includes a Mn^2+ metal ion (D′Antonio & Christianson, 2011, Biochemistry, 50:8018-27). […] Purified N-ABD094-rhArg (SEQ ID NO: 50) in 20 mM Tris-HCl buffer (pH 7.4) was mixed with 20 mM of different divalent metal ions (Mn^2+, Ni^2+ or Co^2+), and was incubated at 52-55° C. for 15-60 min and then buffer exchanged with PBS buffer (pH 7.4).
Samples were subjected to enzyme activity and enzyme kinetic studies to determine the specific activity and catalytic efficiency (kcat/Km). Samples were applied to inductively coupled plasma atomic emission spectroscopy (ICP-OES, Agilent 700 Series ICP optical emission spectrometer) for quantitative analysis of metal content.

Data set [4] deals with mouse primary hepatocytes. The data set is described as follows: Mouse primary hepatocytes: MTT viability and pAkt Western blot. Type of data set: cell-based. The protocol:
Data are expressed as mean±SEM, n=5 for each group. […] (C) Western blot analysis of protein levels of phosphorylated Akt (pAkt) (marker of insulin signaling) in […] […] Lane 1: con; Lane 2: 5U/mL N-ABD094-rhArg (SEQ ID NO: 50); Lane 3: 100 nM insulin; Lane 4: 5U/mL N-ABD094-rhArg (SEQ ID NO: 50) +100 nM insulin.
Obesity is highly associated with insulin resistance. We therefore conducted both in vivo and in vitro study to determine whether N-ABD094-rhArg (SEQ ID NO: 50) treatment will have effects on insulin sensitivity. […] […] Cells were then collected for Western blot analysis to detect phosphorylated protein kinase B (pAkt), which is commonly used as marker of insulin signaling.

B1: N-ABD094-rhArg: albumin binding domain ABD094 fused N-terminally to recombinant human arginase I, SEQ ID NO: 50 (protein)
chain: MHHHHHHDEAVDANSLAEAKEAANAELDSYGVSDFYKRLIDKAKTVEGVEALKDAILAALPSGSNNNNNNGSGGMSAKSRTIGIIGAPFSKGQPRGGVEEGPTVLRKAGLLEKLKEQECDVKDYGDLPFADIPNDSPFQIVKNPRSVGKASEQLAGKVAEVKKNGRISLVLGGDHSLAIGSISGHARVHPDLGVIWVDAHTDINTPLTTTSGNLHGQPVSFLLKELKGKIPDVPGFSWVTPCISAKDIVYIGLRDVDPGEHYILKTLGIKYFSMTEVDRLGIGKVMEETLSYLLGRKKRPIHLSFDVDGLDPSFTPATGTPVVGGLTYREGLYITEEIYKTGLLSGLDIMEVNPSLGKTPEEVTRTVNTAVAITLACFGLAREGNHKPIDYLNPPK
modifications: Mn2+; N-ABD094-rhArg, Synthesized in the Lab
By Km is commonly meant the substrate concentration at which the rate is half of its maximum. What is called kcat is the maximal rate divided by the concentration of active sites. With B1, the Specific activity in data set [1] was determined as 184 U/mg. Besides, the “systolic and diastolic blood pressure and heart rate vs vehicle-treated DIO mice” value in data set [2] is reported as “significantly lower”. Further, in data set [3], the Michaelis constant (Km) was 1370 to 1890 µM and the turnover number (kcat) was 82 to 98 s⁻¹. The “phosphorylation of Akt upon insulin stimulation” value in data set [4] (5U/mL 24 hr, then 100 nM insulin 20 min) was “prominent increase”. The “cell viability (MTT)” value in data set [4] (5U/mL, 48 hr) is on record as “did not affect cell viability”.
